The results in this text go back to paper PMC5393062.

As usually defined, the Kd is the equilibrium constant for the complex coming apart. Low readings indicate higher affinity, high ones lower affinity.

Common to all, as to test: fluorescence polarization
A general note: Fluorescence polarisation rises when a labelled molecule tumbles more slowly, as on binding a larger partner.

The target in data set [1] is pNOB8 ParA (Sulfolobus NOB8H2, plasmid pNOB8) (UniProt O93708). As to conditions: FP: 25 mM Tris-HCl pH 7.5, 100 mM NaCl, 1 nM 5'-fluorescein DNA, with ATP/AMPPNP, ADP or no nucleotide, temperature not stated. Crystals: 20% PEG 4000, 10% ….
In data set [2] the target is pNOB8 ParA(K270E) (Sulfolobus NOB8H2, plasmid pNOB8) (UniProt O93708). As to conditions: FP: 25 mM Tris-HCl pH 7.5, 100 mM NaCl, 1 nM 5'-fluorescein DNA, with ATP/AMPPNP, ADP or no nucleotide; temperature not stated. Crystals: 20% PEG 4000, 10% ….
Data set [3] addresses pNOB8 ParA(R52E-K221E) (Sulfolobus NOB8H2, plasmid pNOB8) (UniProt O93708). As to conditions: FP: 25 mM Tris-HCl pH 7.5, 100 mM NaCl, 1 nM 5'-fluorescein DNA, with ATP/AMPPNP, ADP or no nucleotide; temperature not stated. Crystals: 20% PEG 4000, 10% ….
The target of data set [4] is pNOB8 ParA(R52E-K218E) (Sulfolobus NOB8H2, plasmid pNOB8) (UniProt O93708). Conditions: FP: 25 mM Tris-HCl pH 7.5, 100 mM NaCl, 1 nM 5'-fluorescein DNA, with ATP/AMPPNP, ADP or no nucleotide; temperature not stated. Crystals: 20% PEG 4000, 10% ….
Data set [5] deals with pNOB8 ParA(K58E) (Sulfolobus NOB8H2, plasmid pNOB8) (UniProt O93708). As to conditions: FP: 25 mM Tris-HCl pH 7.5, 100 mM NaCl, 1 nM 5'-fluorescein DNA, with ATP/AMPPNP, ADP or no nucleotide; temperature not stated. Crystals: 20% PEG 4000, 10% ….

For the sequence “TGACGCCGGCGTCA (double strand) [14mer nsDNA, FP probe]”, the Kd in data set [1] (AMPPNP, stoichiometry ~1 ParA dimer to 2 duplexes at 1 uM DNA) came out at 116 nM; in data set [1] it was 120 nM; in data set [2] it was 300 nM; in data set [3], 5.93 µM; in data set [4], 3.19 µM; in data set [5], 274 nM.
